# Test: soluble on expression in E. coli; label from the status in PepcDB or PDB records
row,Sequence,soluble on expression in E. coli
1,MPDHARMPRNLSSNKIAKTIAGEDLDEEEVLEMDAGQSAREEGRFVFECAWEVANKVGGIYTVLRSKAQISTEELGDQYCMFGPMKDGKWRLEVDPIEPENRTIRAAMKRFQADGFRCMYGRWLIEGYPKVILFDLGSGAVKMNEWKHELFEQCKIGIPHEDIESNDAVILGFMVALFLKHFRESVTSYTPLVVAHFHEWQAGVGLLMTRLWKLDIATVYTTHATLLGRHLCAGGADLYNNLDSFDLDAEAGKRKIYHQYCLERAACQTAHIFTTVSEITGLEAEHFLCRKPDVLTPNGLNVVKFAALHEFQNLHAQNKEKINQFIRGHFHGHLDFDLDKTLYFFTAGRYEFSNKGGDMFIESLARLNHYLKTTSDPRHMGVTVVAFLIYPAPANSFNVESLKGQAVTKQLKEAVDRIKEKVGQRIFDICLQGHLPEPEELMSPADNILLKRCIMSLHNSSLPPICTHNMIRADDPVLESLRRTSLFNKPEDRVKVVFHPEFLSSVSPLIGLDYEDFVRGCHLGVFPSYYEPWGYTPAECTVMGIPSVSTNLSGFGCFMQEHVEDHEQKGIYVIDRRHKAAEESVQELAQVMYDFCGQSRRQRIILRNSNEGLSALLDWQNLGVFYRDCRRLALERLHPDVDKIMRDNEGKVPSAATSRRPSIHSSDGEDDE,not soluble
2,MPDLAGDLAAVLPPRPDTPGGEALPTDSGDVLRQGDILGRRVQSVRLGWDQLTSVQLWMCEQVLGIESAAEDEKPRRTRADKWALNYQAAKQFYEREGHLQVARKWVERIVIGGDGDGGDDKEEREHKLGARIGIQRSRAATPTPERMELLSAIGMRWSLEHHHHHH,not soluble
3,MPEEESIDIKFRLYDGSDIGPFRYSAASTVDFLKQRVVSDWPKGKTVVPKGINEVKLISSGKILENNKTVGQCKTPFGDIAGGVIVMHVVVQPSLAKSKTEKKVDKAPKAVICTCTIL,soluble
4,MPEIITPIITPFTKDNRIDKEKLKIHAENLIRKGIDKLFVNGTTGLGPSLSPEEKLENLKAVYDVTNKIIFQVGGLNLDDAIRLAKLSKDFDIVGIASYAPYYYPRMSEKHLVKYFKTLCEVSPHPVYLYNYPTATGKDIDAKVAKEIGCFTGVKDTIENIIHTLDYKRLNPNMLVYSGSDMLIATVASTGLDGNVAAGSNYLPEVTVTIKKLAMERKIDEALKLQFLHDEVIEASRIFGSLSSNYVLTKYFQGYDLGYPRPPIFPLDDEEERQLIKKVEGIRAKLVELKILKE,soluble
5,MPELDESASFAELLEAHAGGTRNVRPGDRISAAIVAITDDSVFVATGSKVDGVIDRRELEEADGSLPYAVGDRVDLYVTAVNGQEIRLSKGLSGQGGAAVLEEARDSGVPVEGRVTGTCKGGYNVDVLRKRAFCPGSQIDLHQLEDAESVVGQTFQFLVTRVEQHGRNIVVSRRALLERERDAALATFLEGVKEGDVLEGTVTRLAPFGAFVEIAPGVDGMVLEHHHHHH,not soluble
6,MPELPEVETTRRRLRPLVLGQTLRQVVHRDPARYRNTALAEGRRILEVDRRGKFLLFALEGGVELVAHLGMTGGFRLEPTPHTRAALVLEGRTLYFHDPRRFGRLFGVRRGDYREIPLLLRLGPEPLSEAFAFPGFFRGLKESARPLKALLLDQRLAAGVGNIYADEALFRARLSPFRPARSLTEEEARRLYRALREVLAEAVELGGSTLSDQSYRQPDGLPGGFQTRHAVYGREGLPCPACGRPVERRVVAGRGTHFCPTCQGEGP,soluble
7,MPEMPEDMEQEEVNIPNRRVLVTGATGLLGRAVHKEFQQNNWHAVGCGFRRARPKFEQVNLLDSNAVHHIIHDFQPHVIVHCAAERRPDVVENQPDAASQLNVDASGNLAKEAAAVGAFLIYISSDYVFDGTNPPYREEDIPAPLNLYGKTKLDGEKAVLENNLGAAVLRIPILYGEVEKLEESAVTVMFDKVQFSNKSANMDHWQQRFPTHVKDVATVCRQLAEKRMLDPSIKGTFHWSGNEQMTKYEMACAIADAFNLPSSHLRPITDSPVLGAQRPRNTQLDCSKLETLGIGQRTPFRIGIKESLWPFLIDKRWRQTVFH,not soluble
8,MPERYTGSDGKTYLFKGWYKGNAKPSTLETTKTPSYAVTYDDNDDLHVVYEEAVMKTYTLPAREALFGYVDEQGNLINPAKFKLSATMGESDGATGEMTTFPTIDGIDMPASQLKKLAIPQKVYTRPDDGTIVTYGPQEVSVEIPKYYQTISISPTTAYTGDKTKYPVPNEVRRGIENPDNIVSSLVGTTAYNLTQKSATRYTARRSYWTWGPTKTLYSMSIYSGTAGGNYNLSTPDGTIYYYLENRRVTEHFVDESGAKITPPTGFTQGNQLVVDSENYVYTVAKALPKIYQAGEKTYIFQGWFKGKTKPATLKTTTTPSFTPTFNDEDDMTAVYQEAIPTAELTLTGAVDIIENGATMDYWEALLKNTGEAPLTTIKIKPTATWAAGIGAPNTIFVQGTGQNTKAFPVTKEQWTTGAGVSITLDQPLPAGGQLKMNLLGTAVTGNPGQVLTADVEVTGNFGSLTAKDTVRIKDLDQEITSPDGDGFISTPTFDFGKLAISGSKQQYGLKKAADYYGNGTRNPYLRLNTSQANWSLTAQLSQPKSATDSLPTTTRLLLGTAAAASFTDYNQPTETRTPLGKTSTVTLTADNTATAVVANQQFTGSDVYQLDFTFANIKLEVPANQGMAGQQYQAAVTWNLVTGP,not soluble
9,MPETELHVIFDQPNEVFFPGQPISGRVVLSTTKEKYKARAVNIKILGLAHTSWTDYESVRRVDADGKVSHHRQSVHYSANVNYLDYTLLLWACKDGSNELAAGEYAWSFSYNLPLNVPPSFEGKYGYLRYSVTAEVDRPWRLDKAKKRCITVSPLIDLNVIPHALTQINDQASENLGCCCFKKGYLELRVNIPKTGFVPGETVPMNIHILNHSSVPVTEVKAKIIQQCKFIAYRNGTTFHYGGGYETGMSGQLQETKHDTKTVVKHGQEMTVAPRNEHKFAMELRLPSVTPTINQFSPVITVEYIVQFHVETSSTFGSDVDCEMGILIGTVPIRQFLPPAYYPQDPNLPQILPTPIGGGVVAPPPGYGFLPMADGSEKGAGDASYPAASMPMYPIPNVPYPSKDDGTVVIPSAPPLSYEESMFGQDGTELNTDENEQPFAPKYPVFNNLPVYNPTAPPPE,not soluble
10,MPEVSFIICTRNRVAVLEACLKSVQAACRAHAGFAAELVVVDNGSSDRTAERLASIAAMSDIPFTPVSEPRRGLAAARNAGLRRARGRVLVFVDDDCAVHCDYLRDLERHYASGEQGLIRGGRVELGDPRDLPFTIKRSRVCERLTPDIHPGGFVLGCNMTMHRDVAARIGDFDERFGAGGPLRSAEDTDYLVRAVLLGIPVEYVPDMTIFHHHGRRDRKAIEKLHRDYSLGNGGLCLKHIRHAPWLLRHFYWAARGALRELAGGPAFDRDLDLSHRPIVGMNVLGAARYALLLLARRPQAEPARQDQQANAEAPLLEHHHHHH,not soluble
11,MPFVPVAALKDYVGKDLGHSEWLTIDQERVDQFAECTGDHQFIHVDPEKAAKTPFGGTIAHGFLSLSLIPKLMEGLLVLPEGLKMAVNYGLDTVRFIQPVRVGSRVRLGLTLLDVNEKNPGQWLIKARATLEIEGQEKPAYIAETLSLCFV,not soluble
12,MPGGRGRIGVILPANNAGMEYDLWKMAPEGVSIHSTRMKPTKGCEPENVEEFEKELKYSYSLLAEVSDIIIYGRTYGTHKHAHVIKRVIKDVVIPEESVYELLKKLNVRKLWIGTPYIKERTLEEVEWWRNKGFEIVGYDGLGKIRGIDISNTPIFTIYRLVKRHLNEVLKADAVYIACTALSTYEAVQYLHEDLDMPVVSENAAAMWEALNKLKIKAKLPGF,soluble
13,MPHIVKSTILDAPTDAAWSVLRDFNGHDRWHPAVATSMIERAQPSDKIGCVRRFKLKDGSELREQLLALSDLEQSFSYCLLDTPVPMFNYVAHVRLLPVTDGDRTFWHWESRFTTRPEDKDRITHMVAEDIYQAGFEAIRRHLKEAASSWPLEHHHHHH,soluble
14,MPHPAPNAAAPRVHIIGAGMAGLACAVRLVSHGRAVSLHEAAGQAGGRCRSFVDASLDRLIDNGNHLLLSGNRAVNAFLATIGASDRLDGPERARFPFLDVETGERWCLTPSAGPVPWWLLRADRRIPGTRARDYLEGLKLARASDADRVADLLTPGTPLYRRFWAPLTVGVLNAAPEEAAAALLWPVIKETFGRGEAACRPRMARNGLSDSFVTPALAWLTARGAEIAFNHRLRAIEYGDGRPAALVFSEETPLRLGPADQVVLAVPPAVAAGLLPGLTVPEGSRCIVNAHFRLDHAPEGFADDFEGPLGVIGGTAEWLFVRGDVASVTVSAADALAALDPDEIAARIWRDVALALGLDAAARPPVRIIKEKRATFAQTPDQLCRRPPTRPPGYGLCLAGDWTHTGLPATIEGALRSGEAAADAALHWRFTLEHHHHHH,not soluble
15,MPHSQTSAPRDSLAGVRLARGASPWLLPTVATAAVSLLRARRSGTAKAVAVPATALAAGMLWFFRDPEREITQGRVVSPADGVVQSIMPWKDGRTRVAIFMSPLNVHVNRAPLAGTVTSVEHVPGGFVPAFNKESENNERVVWHFDTELGDIEMIQIAGAVARRIVPYVPQGTKVEQGERVGLIRFGSRVDLYLPEGVEVDVEVGQKTVAGVTRIDRDLEHHHHHH,not soluble
16,MPIHSLSLAGFRSIRKLTLELDALNVVVGANGCGKSNLYKSIQLLHAAAEGGLSAALAAEGGAQKAMWAGGTRRGDKARVPKRMILSARLDDYDYELQLGYPEPSCSLFALDPLVKEESLWLAGHGRRPSTLLLERRNQAAFLCGVEGERNSYPASLRAEESLFGQLAEPHRYPELSQVRETLRNWRFYHEFAIWPGSPLRAPQVGIRSPVLAHDGANLAAAFQTIVEIGDHELLHSVLTDAFPDSRFLVDAQQGRFQMLMRRDGLLRPLEAAELSDGTLRFLCLAVALLSPRPPAFMALNEPENSLHPALLPALARLIAEASRHSQLWVTSHSPELAERIRRHRPLKTFQLSLRDGETVLQDDLEHHHHHH,not soluble
17,MPIILEKGQKIDLTKGQPKVAKLQVGLGWDPIGQSGGFLSSLFGSKPNVDCDASVVMLEGDRFLNKNDLVYFGNKLSTCGSIIHSGDNLTGEGAGDDETIFVELHKVPSRINRLVFVVNIYDCVNRRQDFGMIRNAYIRIQNPQTGEELARYNLSDNYAGKTTLIAGEMYRHGSEWKFSAVGEGTQDKNLSEIVSRYQ,not soluble
18,MPIIRPEELPKLMRTISMSNLSIPTRCLLEWQLLTLIRPAEASATAWSEIDIENKQWCIPAERMKAKRDHIVPLSEQALELLEIMRPISGNRQYVFPSRNDPRKPMNSQTANAALKRIGYSGKLVAHGLRSIASTAMNEAGFNADVIEAALAHSDKLEHHHHHH,not soluble
19,MPILEEPHESRTITLPPRPARLGGRCDVLVVGGGPAGFAAAVGAADAGADTVLVERYGFLGGNATAALVMPLMSFHNEHKQAAFTEAGDTSRLLPTDHGEGEPVVAGVLWQLLDRLTGRGGCLPPSPKTGYTVPFDPELFKFCLLEMADESGVRMLFHSFASGALPLDDGPGWRVVFETKSGPVVIDAGVVVDGTGDGDVAAACGAPYEVGRPEDGLVQPMTLMFRVADFARPDFAAYVREHPDQWRGVHGLWDLIEEARKNGELRLPREDILFFATPHPHEVAVNSTRVNRVLGTSVWDLTRAEYTARHQLAEIDRFLRTRVPGFEESYVVQSGTHVGVRESRRVVGDHRLTGHDILAARTFPDVIAHGAYPVDIHNPRGSGTVLKRVPRGSFYDIPLRCLLPRDTDRLLVAGRCISGTHVAHSSYRVMPIAMATGHAAGVCAALTVRHGSGPRGLPYRLVQRELLRQGARLRTEPHLEHHHHHH,not soluble
20,MPIMLEDYQKNFLELAIECQALRFGSFKLKSGRESPYFFNLGLFNTGKLLSNLATAYAIAIIQSDLKFDVIFGPAYKGIPLAAIVCVKLAEIGGSKFQNIQYAFNRKEAKDHGEGGIIVGSALENKRILIIDDVMTAGTAINEAFEIISNAKGQVVGSIIALDRQEVVSTDDKEGLSATQTVSKKYGIPVLSIVSLIHIITYLEGRITAEEKSKIEQYLQTYGASA,soluble
